These results are taken from the supplement of paper PMC9170038.

The data set relates to MS2 coat protein. Nature of the data set: apparent KD of MS2 coat protein; designed switch direction (-1 OFF switch, 1 ON switch): -1; higher = weaker reporter binding. In outline: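 RNA switches sharing common flanks were transcribed by stalled E. coli RNA polymerase on Illumina chips. A doubling series of SNAP-549-labelled MS2 coat protein, from 0.7 or 1.5 nM to 3 µM, was applied in Tris-HCl pH 7.5 buffer with KCl, MgCl2, BSA, DTT, tRNA and Tween-20. Each step lasted 0.8–1.5 h at the bottom of the series and 10–20 min at the top. Normalised cluster fluorescence was curve-fitted, giving apparent KD as the per-design median over clusters.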

[1] abbreviates: Eterna round: R95, input ligand: FMN 200 uM.
Setting [2] is: Eterna round: R95, input ligand: microRNA oligo, concentration not stated.
The mark [3] stands for this setting: Eterna round: R95, input ligand: none.
Setting [4] is: input ligand: microRNA oligo, concentration not stated.

For the sequence “GUUGACGGAGGAUAUACAGCCGAGAUCCACCGUGUGGAGGAACAUGAGGAUCACCCAUGUAGAAGGCUGCAGUA [Eternabot (L2) Solution 92] (Eterna round: R97, puzzle: Exclusion 2)”, the “apparent KD of MS2 coat protein” value was 16 nM (input ligand: FMN 200 uM) and 17.1 nM (input ligand: none).

Regarding “GAGAAAUGUGUUAGGAUAUCCCGCUAAAGCAGAUAGGAGAAGGAACAUGAGGAUCACCCAUGUAGGGAGGGCCA [Eternabot (Original) Solution 17] (Eterna round: R97, puzzle: Brourd's mod of Exclusion 4)”, the “apparent KD of MS2 coat protein” value came to 192 nM (input ligand: FMN 200 uM) and 67 nM (input ligand: none).

Turning to “UUUAGUUCAGGAUAUGUAGAUAUUAACAUGAGGAUCACCCAUGUAGAUCCUGAAUUGACUACAGAAGGGAGCAUUU [Mod of Brourd 17 - Jieux - Exclusion 5] (Eterna round: R97, puzzle: Exclusion 5)”, the “apparent KD of MS2 coat protein” value (input ligand: FMN 200 uM) worked out at 44.7 nM and the “apparent KD of MS2 coat protein” value (input ligand: none) worked out at 17.7 nM.

As to “GUAUAACUACACGGGCUCAACAUGAGGAUCACCCAUGUCAUAUACGCAAGCUUUUUGCUUGUCUUACCUGUCCGUGA [Ariedbi] (puzzle: Sensor v3, turn-off variant 1)”, the “apparent KD of MS2 coat protein” value is, setting by setting: under setting [1], 11.5 nM; under setting [2], 10.4 nM; under setting [3], 10.1 nM.

With “UGCAGACGAGGAUAUAAAUUUGAUAACAUGAGGAUCACCCAUGUGAUCGAUAGAUCAAAUUUAGAAGGCGUCUGCU [E5/7-A3] (Eterna round: R97, puzzle: Exclusion 5)”, the “apparent KD of MS2 coat protein” value (input ligand: FMN 200 uM) was determined as 541 nM and the “apparent KD of MS2 coat protein” value (input ligand: none) was 519 nM.

For the sequence “ACAUCACAGCUAGGAUAUAGAUGACAUGAGGAUCACCCAUGUUAUCCCAUGUUGACGGAAACCGACUAGAAGGAGCUACAGAUG [Ex NG2 #7] (Eterna round: R96, puzzle: Exclusion NG 2)”, the “apparent KD of MS2 coat protein” value (input ligand: FMN 200 uM) was 129 nM, the “apparent KD of MS2 coat protein” value under setting [4] worked out at 41.8 nM and the “apparent KD of MS2 coat protein” value (input ligand: none) turned out to be 47.9 nM.

Consider “CCCGGGUCAGGAUAUCACUUAAGCGCAGUGAGCGUCUGAGAUGAGAAGGGACAUGAGGAUCACCCAUGUGUGGC [Eternabot (L2) Solution 66] (Eterna round: R97, puzzle: Exclusion 4)”, for which the “apparent KD of MS2 coat protein” value is, setting by setting: (input ligand: FMN 200 uM) 456 nM; (input ligand: none) 93.7 nM.

For the sequence “GCUGGUCAAGGAUAUACAUGAGGAUCACCCAUGUGAUUAGCAGUCCUCGGACUGCAAUGUAGAAGGUGACCAGC [E3/2-C1] (Eterna round: R97, puzzle: Exclusion 3)”, the “apparent KD of MS2 coat protein” value was 1410 nM (input ligand: FMN 200 uM) and 308 nM (input ligand: none).

As for “CAGUACUGAGGAUAUACAUGAGGAUCACCCAUGUGUCCCAGCUAGGAUACUAGCAAAGGUAGAAGGCAGUACUG [Mat - Exclusion 3 - Eli Mod - D15] (Eterna round: R97, puzzle: Exclusion 3)”, the “apparent KD of MS2 coat protein” value (input ligand: FMN 200 uM) was 945 nM and the “apparent KD of MS2 coat protein” value (input ligand: none) came to 39.2 nM.

For “CUCCGGCGUGUAGGAUAUGGUUCCGAUUAGGAUCCAGAAGGACAUGAGGAUCACCCAUGUACAUGUCGUCGGUCGUCACCGGGC [salish99_ExNG1_r04_211] (Eterna round: R96, puzzle: Exclusion NG 1)”, the “apparent KD of MS2 coat protein” value reads like this: (input ligand: FMN 200 uM) 107 nM; under setting [4], 24.1 nM; (input ligand: none) 29.4 nM.

For the sequence “GUGGAGUAAGGAUAUACAUGAGGAUCACCCAUGUAAGGGAAGGUGAUGGGAGUAGAUAGUAGAAGGUACGAGGA [JR_Exclu3_Sub067] (puzzle: Exclusion 3)”, the “apparent KD of MS2 coat protein” value is, setting by setting: under setting [1], 58.3 nM; under setting [2], 97.2 nM; under setting [3], 100 nM.

For the sequence “GAGUGAGCGUGAGGAAUAUACAUGAGGAUCACCCAUGUUUGCUAAUAUAUUGCUCGUCUUAUAACAACAAUUAACUG [Mod-hoo-honey#ab] (Eterna round: R97, puzzle: Sensor, turn-off variant 1)”, the “apparent KD of MS2 coat protein” value is 12.6 nM (input ligand: FMN 200 uM) and 13.7 nM (input ligand: none).

For the sequence “GGUACUAACAGCUGACUGUUAGUACUGUAGGUUUGUGUUACAUGAGGAUCACCCAUGUCCUCAUAAGCUCGUCUUGU [JL-sv3-2.23 mat747 mod] (puzzle: Sensor v3, turn-off variant 2)”, the “apparent KD of MS2 coat protein” value reads like this: under setting [1], 382 nM; under setting [2], 252 nM; under setting [3], 445 nM.

Regarding “UCGGCGCGAGGAUAUACGUUUGCGCGUUUUCGUUUGCGCGUACAUGAGGAUCACCCAUGUAGAAGGCGCGCCGC [Apr-15 SS2-14] (puzzle: Exclusion 2)”, under setting [2], the “apparent KD of MS2 coat protein” value is 13.2 nM.

Turning to “UUUUAACAUGAGGAUCACCCAUGUGAGGAUAUCGAAAUUUAUAUUAAUAUUAAUUUUACGAGAAGGCACAUUUU [JMF 34] (puzzle: Exclusion 1)”, under setting [2], the “apparent KD of MS2 coat protein” value was 94.6 nM.

In the case of “AUGACAGGACAUGAGGAUCACCCAUGUACACGACCAAUGACCGAGGAUAUCGAUUGCAUGCAGGUCGAGAAGGCGGAGUAUCCA [Eternabot solution 3] (Eterna round: R96, puzzle: Exclusion NG 3)”, the “apparent KD of MS2 coat protein” value (input ligand: FMN 200 uM) is 18.2 nM, the “apparent KD of MS2 coat protein” value under setting [4] amounted to 30.9 nM and the “apparent KD of MS2 coat protein” value (input ligand: none) was found to be 28.1 nM.

“UCAAGAAUAGGAUAUACAACAUGCCCGCUUCUUUGCAUCGCACAUGAGGAUCACCCAUGUAGAAGGGUUCUCUA [Exclusion-2-#16] (Eterna round: R97, puzzle: Exclusion 2)”: the “apparent KD of MS2 coat protein” value by setting is: (input ligand: FMN 200 uM) 103 nM; (input ligand: none) 151 nM.

As for “GAAAAGUGAGGAUAUCGACAUCUCGACAUGAGGAUCACCCAUGUUGUAGGUCGUGUCGAGCGAGAAGGCACAAUAA [EX5 B.9] (Eterna round: R97, puzzle: Exclusion 5)”, the “apparent KD of MS2 coat protein” value (input ligand: FMN 200 uM) was 48.2 nM and the “apparent KD of MS2 coat protein” value (input ligand: none) was 15 nM.

As to “ACGAUGAUCGAAAAGUGUAAACUAACAUGAGGAUCACCCAUGUAGGAUAUGGCUACGAAAAGUAGUCAGAAGGGCAUGUCAUCA [3 Av mod - 2] (Eterna round: R96, puzzle: Exclusion NG 3)”, the “apparent KD of MS2 coat protein” value turned out to be 24 nM (input ligand: FMN 200 uM), 13.2 nM under setting [4] and 20.3 nM (input ligand: none).

Regarding “ACUCGACAUGAGGAUCACCCAUGUGAGGAUAUGGCCUGUAUGGCGUGAGCUGGCUAAAUCAGAAGGCGCGUGGG [salish99_ex1_r4_049] (Eterna round: R97, puzzle: Exclusion 1)”, the “apparent KD of MS2 coat protein” value was 222 nM (input ligand: FMN 200 uM) and 194 nM (input ligand: none).

With “CGUGACUCAGGAUAUCUAUAGUAUCACAUGAGGAUCACCCAUGUCCAGCGAAAGCUGGAGGGAGAAGGGAGUCACG [Fiskers Ex 5 - 42] (puzzle: Exclusion 5)”, the “apparent KD of MS2 coat protein” value came to 71.3 nM under setting [1], 130 nM under setting [2] and 229 nM under setting [3].

In the case of “CCGGUUUAGGAGGAUAUAGGAGUCGAUAGACACCUAGAAGGCCUAACAUGAGGAUCACCCAUGUGACCUUCCGG [Mod of Eli 30 - Jieux - Exclusion 6] (Eterna round: R97, puzzle: Exclusion 6)”, the “apparent KD of MS2 coat protein” value reads like this: (input ligand: FMN 200 uM) 234 nM; (input ligand: none) 76 nM.

Turning to “AAGUUACAUGAGGAUCACCCAUGUGAGGAUAUGAGUCAGUCACGGUGACGUGGCUGACUCAGAAGGCACAAAGG [JL-ex1-4.37 salish99 mod] (Eterna round: R97, puzzle: Exclusion 1)”, the “apparent KD of MS2 coat protein” value turned out to be 256 nM (input ligand: FMN 200 uM) and 98.1 nM (input ligand: none).

“CAUGAAGACAAGGAUAUCCGAAUGACGUAAGAAGGAGAAGGUGUCACAUGAGGAUCACCCAUGUGGGAUCUCUG [EX6 B.15] (Eterna round: R97, puzzle: Exclusion 6)”: the “apparent KD of MS2 coat protein” value reads like this: (input ligand: FMN 200 uM) 138 nM; (input ligand: none) 23.9 nM.

Consider “UUUUUAAAUGAAGGAUAUACUUAACAUGAGGAUCACCCAUGUGGUGUUGUGAGUGAGUGAGUUUAGUAGAAGGUCAAUUAUUUU [JMF's solution 20] (Eterna round: R96, puzzle: Exclusion NG 2)”, for which the “apparent KD of MS2 coat protein” value runs as follows: (input ligand: FMN 200 uM) 1020 nM; under setting [4], 287 nM; (input ligand: none) 288 nM.

As to “GCUAAACAAGGAUAUACAUGAGGAUCACCCAUGUAGGCAUAGGGUGAAGCACGCCUAUGUAGAAGGUGUCCGCA [Eternabot (Original) Solution 34] (Eterna round: R97, puzzle: Exclusion 3)”, the “apparent KD of MS2 coat protein” value was 80.6 nM (input ligand: FMN 200 uM) and 185 nM (input ligand: none).

Consider “GCCUACAGAGGAUAUACAAAUGUAUGAAACCUGUUUAGACGACAUGAGGAUCACCCAUGUAGAAGGCUGUGGGC [Eternabot (L1) Solution 85] (Eterna round: R97, puzzle: Exclusion 2)”, for which the “apparent KD of MS2 coat protein” value turned out to be 285 nM (input ligand: FMN 200 uM) and 37.5 nM (input ligand: none).

“AUAUUACGAGGAUAUCGUCUCUCCCACAUGAGGAUCACCCAUGUUAUCCAUGUUUCGUUUCGAGAAGGCGUAAGUU [JR_E5_Sub071] (puzzle: Exclusion 5)”: the “apparent KD of MS2 coat protein” value under setting [2] was determined as 65.2 nM.

“GUCACAUGGACAUAGGAUCACAUGAGGAUCACCCAUGUGACUAACAAGCUUUUUGCUCGUCUUAUGUCUAUGUGAAG [Stov1/16-A3] (Eterna round: R97, puzzle: Sensor, turn-off variant 1)”: the “apparent KD of MS2 coat protein” value reads like this: (input ligand: FMN 200 uM) 14.4 nM; (input ligand: none) 12.4 nM.

Regarding “UUUUGGCAGGCUAUUAUUAACAUGAGGAUCACCCAUGUGCAUCCAAAAUUACUUUUAGAUCUUGCUGGUCUUAUAUA [JR_STOV1_Sub085] (Eterna round: R97, puzzle: Sensor, turn-off variant 1)”, the “apparent KD of MS2 coat protein” value (input ligand: FMN 200 uM) stood at 284 nM and the “apparent KD of MS2 coat protein” value (input ligand: none) was found to be 330 nM.

Regarding “GUUGGUAAGUCAGGAUAUCCCUGUAAUGGCAGCGGAGAAGGGACAUGAGGAUCACCCAUGUGAACCUCCGGCGGGUAAACCCGC [Issoange] (Eterna round: R96, puzzle: Exclusion NG 1)”, the “apparent KD of MS2 coat protein” value came to 103 nM (input ligand: FMN 200 uM), 20.5 nM under setting [4] and 37.1 nM (input ligand: none).
